Assay results published in the supplement of paper PMC10567573.

B1: FAM50A (parent)
chain: HIFPASRWEPYDPEKKWDKYTIR
B2: SASS6 (parent)
chain: QKELQDVGQSLRIKEQEVCKLQEQ

Variants of: B1
Assay: protein stability index of a GFP-peptide fusion (GPS, HEK-293T) (PSI 1-6); higher = more stable
Settings: c terminus: native
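Note: lentivirally expressed fusions sorted by FACS into six bins by GFP to DsRed ratio, PSI derived from sequencing read proportions per bin multiplied by bin number.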

Protein stability index: each site, then its substitutions
T21: Y 2.71
I22: V 2.75
F3: N 3.25; Y 2.1; L 2.63; S 2.79; I 2.57
A5: P 3.42; D 2.04
I2: T 2.38; V 2.88
P10: Y 2.89
W17: Q 3.14; S 3
S6: W 2; F 2.92
R23: M 2.1; K 2.4
K16: P 2.48; L 2.63
D12: F 2.48; R 2.07
P13: T 2.3
H1: V 1.45; W 1.46
K19: W 3.02
P4: K 2; W 1.64
W8: Q 4.11; P 3.92
Y20: H 2.74

Variants of: B2
Assay: as above
Settings: c terminus: a fixed tail appended

Protein stability index of substitutions, site by site:
L11: T 5.67; H 5.36; A 5.25; N 5.77; Y 5.21; S 5.47; M 5.6; W 5.11; G 5.88; I 5.39; P 5.37; E 5.84
V7: L 5.14; T 5.68; M 3.42; H 4.72; F 4.73; W 4.64; N 4.92; I 5.05; Y 5.18; S 5.76; D 5.71; A 5.19; G 5.41; R 5.39
E3: D 5.34; Y 4.4; W 3.84; C 4.83; M 4.02; Q 4.68; F 3.29; L 4.92; H 4.39; N 4.88; S 5.1; V 4.52; A 4.92; K 4.63; P 3.71; T 5.08
L21: G 5.9; A 5.02; E 5.78; H 5.57; C 5.73; N 5.68; M 5.03; T 5.68; Q 5.42; F 5.14; K 5.81; S 5.27; D 5.84; W 4.92
S10: T 5.48; A 5; G 4.74; Y 4.32; H 4.89; W 2.66; Q 5.31; F 4.91; C 4.12; P 4.37; M 5.33; V 3.9; I 3.83; D 3.74; K 5.1
Q9: K 5.3; H 5.05; R 5.1; T 5.23; G 5.02; N 5.67; C 4.76; D 5.71; Y 4.87; M 4.67; F 4.13; S 4.47; I 4.97; L 4.84
G8: A 3.61; D 5.26; V 4.69; N 5.12; I 4; K 5.2; F 4.07; M 4.98; E 5.38; R 5.48; H 5; P 4.75; Y 4.18; T 5.13; S 5; W 3.84
L4: I 5.34; F 5.11; M 3.98; W 4.82; C 4.06; S 5.41; A 5.25; H 5.68; V 5.28; Q 4.24; D 5.57; Y 4.98; K 4.87
K2: M 5.1; T 5.34; Y 4.98; D 5.26; F 4.02; E 5.48; L 4.97; A 4.58; C 5.29
Q1: K 5.22; E 5.94; V 4.88; H 5.51; P 4.91; M 4.5; F 4.25; C 4.99; N 5.75; S 4.63; T 4.55; L 4.46; Y 4.78
E15: P 4.66; S 4.85; H 4.49; D 5; L 4.15; I 2.8; R 4.21; M 4.54; K 3.7; V 3.54; N 3.15; A 5.01
E23: Y 4.12; N 4.5; Q 4.71; M 4.24; P 4.49; H 5.02; C 4.29; I 4.4; R 4.76; V 4.51; T 4.99
K20: I 5.15; N 5.12; S 5.55; M 5.24; F 4.31; T 5.09; L 5.02; Y 4.66; H 4.49; P 4.98; G 5.36
D6: P 5.26; M 5.02; Y 4.58; V 4.46; K 5.23; N 4.9; H 4.62; T 4.74
Q24: C 5; F 4.44; N 5.39; K 5.27; T 5.35; E 5.77; A 5.21; V 4.92; P 5.58; L 5.16; Y 4.57
K14: Q 4.9; N 4.6; T 5.75; Y 4.68; H 4.78; A 5.04; S 5.33; P 4.73; C 5.54; I 4.43; E 5.49; F 4.38; M 4.47; V 4.94; G 5.46
Q16: W 4.66; G 5.83; Y 4.68; S 5.56; C 4.99; E 5.63; A 5.12; L 4.71; I 4.84; N 5.13
R12: E 5.71; A 5.34; Q 5.75; W 4.84; P 5.39; F 5.02; G 5.6; H 5.41; L 5.33; S 5.34; N 5.19; Y 5.28; T 3.75
V18: I 4.75; M 5.46; R 5.62; H 5.11; Y 5.03; T 4.74; F 4.5; S 5.35; A 4.16; P 3.51; L 5.25; W 4.28; E 5.95; K 5.32; Q 5.54
I13: M 5.64; C 3.3; D 5.72; P 5.38; H 4.64; K 5.29; A 4.69; R 5.7; Y 4.95; F 4.85; V 5.44; L 5.57; W 4.57
E17: A 4.66; L 4.77; K 5.25; Y 4.22; D 5.55; G 4.96; I 4.28; C 4.56; P 4.55; T 4.95; Q 4.62; R 4.54; N 4.33; M 4.71; S 4.97
Q22: D 5.58; F 4.5; R 5.07; P 5.27; V 4.4; N 5.11; I 4.69; K 5.25; M 4.88; Y 4.67; W 4.83
C19: Y 5.19; K 4.88; F 5.35; W 4.59; P 4.9; Q 5.61; D 5.56; I 4.35; S 5.53; T 5.31; R 5.23; E 5.78
Q5: M 5.16; T 5.41; W 4.79; I 5.02; D 5.37; C 5.7; G 5.69; N 5.3; K 5.7; R 4.41
